Laboratory results taken from publication PMC8948467.

Tests used:
[1] = target: IgM of the IgM/IgA-enriched immunoglobulin Pentaglobin; assay: non-reducing SDS-PAGE with Western blot; Pentaglobin separated by non-reducing SDS-PAGE, transferred to nitrocellulose; J-chain, IgA and IgM detected with specific antibodies and fluorophore labeled secondary antibodies
[2] = target: IgA of the IgM/IgA-enriched immunoglobulin Pentaglobin; assay: as above

IgM of the IgM/IgA-enriched immunoglobulin Pentaglobin, sequence (P01871 whole entry): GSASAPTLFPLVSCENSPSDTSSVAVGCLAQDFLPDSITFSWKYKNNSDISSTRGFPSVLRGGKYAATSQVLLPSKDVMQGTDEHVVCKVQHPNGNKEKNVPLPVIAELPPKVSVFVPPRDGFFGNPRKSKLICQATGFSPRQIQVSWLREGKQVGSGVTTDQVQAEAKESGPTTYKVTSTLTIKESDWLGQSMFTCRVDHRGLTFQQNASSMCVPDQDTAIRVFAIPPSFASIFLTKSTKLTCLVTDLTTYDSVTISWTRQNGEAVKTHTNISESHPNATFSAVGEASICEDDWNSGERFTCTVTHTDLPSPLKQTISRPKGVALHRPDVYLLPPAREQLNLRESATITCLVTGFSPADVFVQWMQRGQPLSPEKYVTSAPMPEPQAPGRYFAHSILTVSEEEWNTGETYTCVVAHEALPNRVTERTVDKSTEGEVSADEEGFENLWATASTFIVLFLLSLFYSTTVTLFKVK
IgA of the IgM/IgA-enriched immunoglobulin Pentaglobin, sequence (P01876 whole entry): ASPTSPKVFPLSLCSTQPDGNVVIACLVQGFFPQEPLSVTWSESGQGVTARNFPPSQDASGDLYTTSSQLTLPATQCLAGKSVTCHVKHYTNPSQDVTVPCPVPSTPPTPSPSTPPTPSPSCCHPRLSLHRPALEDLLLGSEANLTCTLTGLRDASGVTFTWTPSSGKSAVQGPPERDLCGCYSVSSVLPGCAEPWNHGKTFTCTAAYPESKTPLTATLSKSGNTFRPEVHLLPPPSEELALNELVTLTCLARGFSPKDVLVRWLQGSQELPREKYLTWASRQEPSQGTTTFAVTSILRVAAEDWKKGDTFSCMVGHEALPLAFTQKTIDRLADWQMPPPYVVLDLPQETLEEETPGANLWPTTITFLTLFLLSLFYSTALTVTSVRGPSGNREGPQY

Row | stoichiometry N [1] | stoichiometry N [2] | Substance
1 | 5 |  | IgM of the IgM/IgA-enriched immunoglobulin Pentaglobin (natural protein)
2 |  | 2 | IgA of the IgM/IgA-enriched immunoglobulin Pentaglobin (natural protein)
